Assays:
[1] = tested on: Notch1; assay: Notch activation in co-culture format with HEK293T (U2OS luciferase reporter); assay type: cell-based, human; conditions: HEK293T expressing full-length ligand, 1:1 ratio
Description: (§1) On day one, U2OS reporter cells (signal receiver cells) were detached with trypsin-EDTA, washed with DPBS, and 5×10^5 cells were added to 6-well plates (Falcon) for transfection with luciferase reporter vectors. On day two, U2OS cells were transfected as described above. On day three, signal receiver cells were detached with trypsin-EDTA, and 100 μL of DMEM media containing 20,000 cells were added to tissue culture 96-well plates (Coastar). In parallel, HEK293T-expressing WT DLL4 or Delta^MAX were detached with trypsin-EDTA, counted manually, and dilutions prepared such that 100 μL of DMEM containing 20,000 signal sender cells were added over signal receiver cells (cell ratio 1:1). Doxycycline (Sigma) at 2 μg/mL was used to induce Notch-Gal4 expression. On day four, luciferase firefly and Renilla signals were determined with Dual-Glo luciferase assay system (Promega) using a GloMax luminometer (Promega). A luminescence ratio firefly:Renilla was determined for every well and normalized to the signal of a well containing U2OS reporter cells and HEK293T non-expressing DLL4 ligands. Notch activation is represented as the mean fold-change over the control±s.d. of three independent biological replicates.

[2] = tested on: Notch3; assay: as above; assay type: cell-based, human; conditions: HEK293T expressing full-length ligand, 1:1 ratio
Sequence of Notch3 (Q9UM47 197-505 limits assumed): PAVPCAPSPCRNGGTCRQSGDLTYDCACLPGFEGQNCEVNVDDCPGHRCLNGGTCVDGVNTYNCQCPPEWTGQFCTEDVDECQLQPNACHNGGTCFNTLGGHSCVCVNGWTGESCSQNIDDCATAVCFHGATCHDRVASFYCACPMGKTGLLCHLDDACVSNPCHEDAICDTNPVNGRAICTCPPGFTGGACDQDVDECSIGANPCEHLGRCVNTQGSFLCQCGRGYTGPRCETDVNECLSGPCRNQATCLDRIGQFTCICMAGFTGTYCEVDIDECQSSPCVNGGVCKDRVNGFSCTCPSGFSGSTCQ
Description: as §1

[3] = tested on: Notch2; assay: as above; assay type: cell-based, human; conditions: HEK293T expressing full-length ligand, 1:1 ratio; P=0.037
Sequence of Notch2 (Q04721 221-530 limits assumed): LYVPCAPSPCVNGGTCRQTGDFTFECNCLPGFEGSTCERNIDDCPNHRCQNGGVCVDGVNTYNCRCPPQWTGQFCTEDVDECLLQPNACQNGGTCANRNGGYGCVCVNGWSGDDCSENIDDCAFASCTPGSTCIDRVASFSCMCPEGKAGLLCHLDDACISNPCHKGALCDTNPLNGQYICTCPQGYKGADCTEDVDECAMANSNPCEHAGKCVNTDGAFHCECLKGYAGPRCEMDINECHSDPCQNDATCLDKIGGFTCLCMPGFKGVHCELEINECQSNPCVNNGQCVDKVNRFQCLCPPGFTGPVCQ
Description: as §1

[4] = tested on: Notch1 (EGF6-13); assay: SPR determination of equilibrium dissociation constants; assay type: binding, human
Sequence of Notch1 (EGF6-13) (P46531 257-526 limits assumed): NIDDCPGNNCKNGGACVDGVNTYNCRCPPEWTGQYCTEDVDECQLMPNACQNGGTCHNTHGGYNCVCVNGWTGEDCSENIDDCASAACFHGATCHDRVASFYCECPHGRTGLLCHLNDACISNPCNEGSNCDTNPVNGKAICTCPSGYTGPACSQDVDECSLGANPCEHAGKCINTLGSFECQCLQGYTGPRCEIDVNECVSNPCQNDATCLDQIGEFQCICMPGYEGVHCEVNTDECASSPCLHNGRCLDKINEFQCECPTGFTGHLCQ
Description: Equilibrium dissociation constants were determined by surface plasmon resonance using a Biacore T200 instrument (GE Healthcare). Approximately 100 resonance units (RU) of biotinylated Notch extracellular fragments (Notch1 (EGF6-13), Notch2 (EGF6-13), Notch3 (EGF5-12), Notch4 (7-12), and mouse Notch1 (EGF6-13)) were immobilized on individual flow cells at 5 μl/min using a streptavidin-coated sensor chip (Series S Sensor chip SA, GE Healthcare). Three-fold serial dilutions of recombinant DLL4 proteins (N-EGF5) starting at 50 μM (WT DLL4), 18 μM (DLL4.v2), and 6 μM (DLL4.v1 and Delta^MAX) were flowed over the chip at 25° C. in SPR buffer (20 mM HEPES pH 7.4, 150 mM NaCl, 1 mM calcium chloride, 0.1% BSA supplemented with 0.005% surfactant P20). Association (“on-rate”) and dissociation (“off-rate”) phases were performed at 10 μl/min for 120 seconds and 300 seconds, respectively. The sensor chip was regenerated after each injection with 30-second washes of 2.25M Magnesium Chloride containing 25% Ethylene Glycol at 50 μL/min. Data collection rate was performed at 10 Hz, and curves were reference-subtracted from a flow cell containing 100 RU of a negative control non-related protein (biotinylated mouse RNF43 PA domain). The maximum RU for each experiment was normalized to a value of 100% and plotted as a function of concentration using Prism 9 software (GraphPad). Steady-state binding and kinetic curves were fitted using the Biacore T200 evaluation software to a 1:1 Langmuir model to determine the KD values.

[5] = target: T1, Notch2 (Homo sapiens, UniProt Q04721); assay: Immunoblot of cleaved Notch2 in CD8+ T cells; assay type: cell-based; conditions: CD8+ T cells after 96 hours with K32 cells
T1 construct: endogenous in cells; host or cells: primary human CD8+ T cells from PBMC
T1 sequence (Q04721 26-2471): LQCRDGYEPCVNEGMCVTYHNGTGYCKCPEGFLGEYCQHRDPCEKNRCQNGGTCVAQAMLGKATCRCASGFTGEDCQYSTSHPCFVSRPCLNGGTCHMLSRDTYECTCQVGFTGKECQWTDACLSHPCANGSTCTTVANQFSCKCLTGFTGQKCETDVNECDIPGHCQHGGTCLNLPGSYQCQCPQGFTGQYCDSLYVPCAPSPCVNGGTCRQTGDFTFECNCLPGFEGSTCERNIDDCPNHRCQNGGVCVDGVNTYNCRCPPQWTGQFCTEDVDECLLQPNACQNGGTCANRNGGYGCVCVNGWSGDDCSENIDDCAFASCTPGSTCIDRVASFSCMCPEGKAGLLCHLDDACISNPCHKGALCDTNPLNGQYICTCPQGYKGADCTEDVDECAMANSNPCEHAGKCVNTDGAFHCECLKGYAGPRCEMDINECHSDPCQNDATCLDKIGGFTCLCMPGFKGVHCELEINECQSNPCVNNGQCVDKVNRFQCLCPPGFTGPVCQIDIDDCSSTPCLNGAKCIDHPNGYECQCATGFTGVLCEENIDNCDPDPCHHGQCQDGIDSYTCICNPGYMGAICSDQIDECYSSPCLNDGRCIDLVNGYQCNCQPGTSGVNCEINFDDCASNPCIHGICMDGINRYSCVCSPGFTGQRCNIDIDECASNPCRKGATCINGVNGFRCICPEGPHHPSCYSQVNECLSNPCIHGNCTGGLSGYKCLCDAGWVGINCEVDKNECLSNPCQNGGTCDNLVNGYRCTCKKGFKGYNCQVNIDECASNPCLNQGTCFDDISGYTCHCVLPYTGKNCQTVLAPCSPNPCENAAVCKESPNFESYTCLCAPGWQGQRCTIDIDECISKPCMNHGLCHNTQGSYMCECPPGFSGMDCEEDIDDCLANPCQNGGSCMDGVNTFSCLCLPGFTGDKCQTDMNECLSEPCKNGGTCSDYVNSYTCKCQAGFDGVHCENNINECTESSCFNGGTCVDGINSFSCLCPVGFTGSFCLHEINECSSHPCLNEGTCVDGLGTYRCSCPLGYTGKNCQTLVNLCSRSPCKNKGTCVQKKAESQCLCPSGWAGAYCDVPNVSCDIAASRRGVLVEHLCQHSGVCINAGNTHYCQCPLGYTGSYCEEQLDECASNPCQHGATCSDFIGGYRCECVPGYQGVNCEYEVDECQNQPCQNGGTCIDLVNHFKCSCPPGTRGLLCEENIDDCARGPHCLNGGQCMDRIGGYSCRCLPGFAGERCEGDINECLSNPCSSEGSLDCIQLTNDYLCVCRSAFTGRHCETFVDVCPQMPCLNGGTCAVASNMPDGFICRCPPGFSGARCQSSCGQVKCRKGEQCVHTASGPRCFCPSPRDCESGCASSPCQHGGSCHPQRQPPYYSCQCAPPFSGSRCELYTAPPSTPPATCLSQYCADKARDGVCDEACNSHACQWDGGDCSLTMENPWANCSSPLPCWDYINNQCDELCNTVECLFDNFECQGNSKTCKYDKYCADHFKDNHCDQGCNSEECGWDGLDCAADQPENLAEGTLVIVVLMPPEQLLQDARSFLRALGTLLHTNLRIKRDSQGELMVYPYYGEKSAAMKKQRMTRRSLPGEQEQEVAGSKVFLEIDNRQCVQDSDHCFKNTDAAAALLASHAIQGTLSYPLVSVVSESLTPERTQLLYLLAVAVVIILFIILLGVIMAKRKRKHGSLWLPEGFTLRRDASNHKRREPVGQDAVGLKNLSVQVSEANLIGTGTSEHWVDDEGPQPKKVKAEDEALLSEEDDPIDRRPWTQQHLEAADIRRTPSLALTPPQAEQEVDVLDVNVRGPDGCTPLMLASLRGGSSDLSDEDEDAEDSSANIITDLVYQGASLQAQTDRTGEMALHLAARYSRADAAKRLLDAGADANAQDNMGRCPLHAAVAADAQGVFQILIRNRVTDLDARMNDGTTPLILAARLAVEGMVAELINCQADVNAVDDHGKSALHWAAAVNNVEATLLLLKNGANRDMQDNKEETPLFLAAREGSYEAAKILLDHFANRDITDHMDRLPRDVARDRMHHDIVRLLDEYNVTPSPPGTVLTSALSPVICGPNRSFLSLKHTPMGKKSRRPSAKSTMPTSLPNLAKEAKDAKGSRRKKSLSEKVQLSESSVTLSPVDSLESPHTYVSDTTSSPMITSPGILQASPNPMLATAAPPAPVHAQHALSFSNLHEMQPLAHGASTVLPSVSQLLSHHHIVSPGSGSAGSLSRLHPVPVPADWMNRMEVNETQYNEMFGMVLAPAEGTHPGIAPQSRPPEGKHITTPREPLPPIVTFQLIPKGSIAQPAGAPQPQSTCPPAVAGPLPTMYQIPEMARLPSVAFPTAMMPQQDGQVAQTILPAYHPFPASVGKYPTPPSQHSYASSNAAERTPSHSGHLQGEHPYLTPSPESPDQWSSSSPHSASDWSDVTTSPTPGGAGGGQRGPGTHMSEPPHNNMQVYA
Text: For detection of Notch activation in CD8^+ T cells, following co-culture with K32 cell lines, CD8^+ T cells were positively enriched by Magnisort Human CD8^+ T cell positive selection Kit (Invitrogen). Nuclear fraction was isolated using NE-PER Nuclear and Cytoplasmic extraction kit (ThermoFisher). Equal protein amounts of nuclear cell lysates were run on 4-20% gradient Tris-glycine gels (Novex-Invitrogen), transferred to PVDF membranes using an iBlot Gel Transfer Device (ThermoFisher), and immunoblotted with antibodies anti-cleaved Notch1 (Val1744 rabbit mAb, Cell Signaling Technology, 1:1,000), anti-Notch2 (D76A6 rabbit mAb, Cell Signaling Technology, 1:1,000), and anti-β Actin (mouse mAb, Sigma, 1:20,000). Secondary antibodies anti-IgG (anti-rabbit or anti-mouse, GE Healthcare, 1:5,000) conjugated to horseradish peroxidase (HRP) were used for detection of proteins using ECL Western Blot Substrate Reagent (Thermo Fisher Scientific). Images were acquired using a Chemidoc Imaging System and analyzed with Image-Lab software (Bio-Rad).

[6] = tested on: CD8+ T cells; assay: Co-culture assay for IFNγ in T cells (K32 aAPCs expressing ligand); assay type: cell-based, human; conditions: 96 h, P=0.047
Description: (§2) Functional assays for human CD8^+ T cells were performed in co-culture with K562 cells expressing human CD32 (K32 cells) generated as described before7. Briefly, cells were γ-irradiated (100Gy) and washed twice with PBS before being loaded with OKT3 (0.0125-0.5 μg/mL, BioXcell) antibody at RT for 10 min. Human CD8^+ T cells were negatively isolated from PBMC and labeled with 5 μM of Cell Trace Violet (Invitrogen) according to manufacturer's specifications. Next, CD8^+ T cells were co-cultured with K32 cells at ratio 1:10 (T cell:K32). The frequency of proliferating T cells was determined after 96 hours by flow cytometry using a CytoFLEX II (Beckman Coulter). Zombie Green (Biolegend) was used for life/dead cell staining to discard dead cells from the analysis. A set of samples were additionally incubated with Golgi stop (BD) at 0.5 μL/well for 5 hours and washed with PBS for detection of intracellular IFNγ using anti-hIFNγ APC antibody (Biolegend). The frequency of IFNγ positive cells was analyzed by flow cytometry (CytoFLEX II, Beckman Coulter). Dead cells were excluded from the analysis by staining with Zombie green (Biolegend). The data represent the mean percentage of proliferating T cells or IFNγ^+ T cells±s.e.m. of four independent biological replicates.

[7] = tested on: CD8+ T cells; assay: Co-culture assay for T cell proliferation (K32 aAPCs expressing ligand); assay type: cell-based, human; conditions: along the OKT3 concentrations, 96 h, vs K32 lacking DLL4 ligands (mock)
Description: as §2

Sequence of Notch1 (P46531 19-1664 limits assumed): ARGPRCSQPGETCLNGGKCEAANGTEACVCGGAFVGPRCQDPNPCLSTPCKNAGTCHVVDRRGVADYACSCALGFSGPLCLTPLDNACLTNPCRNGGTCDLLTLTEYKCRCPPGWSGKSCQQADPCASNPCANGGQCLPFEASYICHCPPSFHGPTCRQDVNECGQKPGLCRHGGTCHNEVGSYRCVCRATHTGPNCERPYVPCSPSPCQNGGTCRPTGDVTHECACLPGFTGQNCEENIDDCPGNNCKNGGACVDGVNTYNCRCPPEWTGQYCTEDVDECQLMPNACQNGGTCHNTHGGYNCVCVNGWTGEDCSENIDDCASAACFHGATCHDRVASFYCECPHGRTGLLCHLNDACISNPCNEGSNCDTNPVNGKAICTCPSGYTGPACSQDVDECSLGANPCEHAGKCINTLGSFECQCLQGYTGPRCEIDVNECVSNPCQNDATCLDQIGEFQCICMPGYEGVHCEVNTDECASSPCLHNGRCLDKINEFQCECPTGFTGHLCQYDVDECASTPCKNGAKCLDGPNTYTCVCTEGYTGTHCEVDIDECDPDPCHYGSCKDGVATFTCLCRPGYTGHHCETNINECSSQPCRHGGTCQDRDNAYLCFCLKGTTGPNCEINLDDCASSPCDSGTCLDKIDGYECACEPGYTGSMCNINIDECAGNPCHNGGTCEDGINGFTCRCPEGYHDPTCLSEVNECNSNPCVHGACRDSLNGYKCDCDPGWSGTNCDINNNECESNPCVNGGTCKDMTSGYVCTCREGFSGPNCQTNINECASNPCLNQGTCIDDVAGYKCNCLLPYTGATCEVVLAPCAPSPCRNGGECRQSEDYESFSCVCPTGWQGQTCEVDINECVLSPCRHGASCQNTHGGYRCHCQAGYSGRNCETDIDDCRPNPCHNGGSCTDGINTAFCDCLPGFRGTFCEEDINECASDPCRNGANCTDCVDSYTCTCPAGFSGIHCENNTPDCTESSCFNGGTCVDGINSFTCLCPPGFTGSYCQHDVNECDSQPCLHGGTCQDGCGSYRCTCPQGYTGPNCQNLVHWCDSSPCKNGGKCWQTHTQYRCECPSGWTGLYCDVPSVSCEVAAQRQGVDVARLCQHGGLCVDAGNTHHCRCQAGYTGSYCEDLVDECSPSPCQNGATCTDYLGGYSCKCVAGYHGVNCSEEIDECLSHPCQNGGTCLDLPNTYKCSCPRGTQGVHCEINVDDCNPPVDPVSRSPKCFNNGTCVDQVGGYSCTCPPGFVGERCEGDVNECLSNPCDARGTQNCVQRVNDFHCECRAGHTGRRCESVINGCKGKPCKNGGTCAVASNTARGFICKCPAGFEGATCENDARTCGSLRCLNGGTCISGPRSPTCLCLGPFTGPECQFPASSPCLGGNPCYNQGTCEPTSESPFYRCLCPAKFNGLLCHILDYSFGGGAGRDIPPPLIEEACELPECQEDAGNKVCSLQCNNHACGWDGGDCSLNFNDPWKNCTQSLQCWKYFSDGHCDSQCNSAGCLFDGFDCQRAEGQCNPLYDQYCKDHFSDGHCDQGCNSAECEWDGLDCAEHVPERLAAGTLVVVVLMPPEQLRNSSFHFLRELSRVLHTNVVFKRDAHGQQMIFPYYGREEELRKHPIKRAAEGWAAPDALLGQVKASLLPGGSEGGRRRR
Sequence of Notch1 (P46531 1665-1756 limits assumed): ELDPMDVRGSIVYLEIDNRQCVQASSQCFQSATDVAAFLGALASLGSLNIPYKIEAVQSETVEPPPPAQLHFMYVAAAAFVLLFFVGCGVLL

Row | Molecule | Emax of signaling vs WT DLL4 [1] [fold] | Emax of signaling vs WT DLL4 [2] [fold] | Notch2 activation compared to unstimulated cells [3] | enhancement of affinity compared to WT DLL4 ([4]; Notch1) | Kd ([4]; SPR, 25° C., ligand N-EGF5, read-out: dissociation constant (KD)) [nM] | off-rate from fitted SPR sensograms ([4]; series DLL4.v1, DLL4.v2, Delta^MAX, FIG. 2C Notch1 EGF6-13) | binding affinity compared to WT DLL4 ([4]; stated for all four human Notch receptors (Notch1-4)) | Notch2 activation (cleaved ICD) relative to WT DLL4 [5] | increase of IFNγ secretion from CD8+ T cells compared with WT DLL4 [6] | enhancement of the percentage of proliferating CD8+ T cells [7]
1 | Delta^MAX: engineered human DLL4 consensus variant with 10 mutations combining DLL4.v1 and DLL4.v2 mutations; sequence matches SEQ ID NO: 4/10 (protein) SSVFQLQLQEFINERGVLASGRPCEPGCRTFFRVCLKHFQAVVSPGPCTFGTVSTPVLGTNSFAVRDDSSGGGRNPLQLPLNFTWPGTFSLIIEAWHAPGDDLRPEALPPDALISKFAIQGSLAVGQNWLLDEQTSTLTRLRYSYRVICSDNYYGDNCSRLCKKRNDYFGHYVCQPDGNPSCLPGWTGEYCQQPICLSGCHEQNGYCSKPAECLCRPGWQGRLCNECIPHPGCRHGTCSTPWQCLCDEGWGGLYCDQDLNYCTHHSPCKNGATCRNSGPRSYTCTCRPGYTGVDCELELSECDSNPCRNGGSCKDQEDGYHCLCPPGYYGLHCEHSTLSCADSPCFNGGSCRERNQGANYACECPPNFTGSNCE | ~2 | ~2 | significant level of Notch2 activation | 1,029 fold | 24 | progressive decreases in off-rate | enhanced affinity | increased | 10-15% | –
2 | WT DLL4: human wild-type Delta-like 4 (N-EGF5, residues 27-400), SEQ ID NO: 1 (protein) SGVFQLQLQEFINERGVLASGRPCEPGCRTFFRVCLKHFQAVVSPGPCTFGTVSTPVLGTNSFAVRDDSSGGGRNPLQLPFNFTWPGTFSLIIEAWHAPGDDLRPEALPPDALISKIAIQGSLAVGQNWLLDEQTSTLTRLRYSYRVICSDNYYGDNCSRLCKKRNDHFGHYVCQPDGNLSCLPGWTGEYCQQPICLSGCHEQNGYCSKPAECLCRPGWQGRLCNECIPHNGCRHGTCSTPWQCTCDEGWGGLFCDQDLNYCTHHSPCKNGATCSNSGQRSYTCTCRPGYTGVDCELELSECDSNPCRNGGSCKDQEDGYHCLCPPGYYGLHCEHSTLSCADSPCFNGGSCRERNQGANYACECPPNFTGSNCE | – | – | – | – | – | – | – | – | – | did not show a significant improvement
